Assay results published in publication PMC2120827.

Biological target: GST-Sox17 (mouse, UniProt Q61473 24-366)
Assay: EMSA

Sequence of GST-Sox17 (Q61473 24-366): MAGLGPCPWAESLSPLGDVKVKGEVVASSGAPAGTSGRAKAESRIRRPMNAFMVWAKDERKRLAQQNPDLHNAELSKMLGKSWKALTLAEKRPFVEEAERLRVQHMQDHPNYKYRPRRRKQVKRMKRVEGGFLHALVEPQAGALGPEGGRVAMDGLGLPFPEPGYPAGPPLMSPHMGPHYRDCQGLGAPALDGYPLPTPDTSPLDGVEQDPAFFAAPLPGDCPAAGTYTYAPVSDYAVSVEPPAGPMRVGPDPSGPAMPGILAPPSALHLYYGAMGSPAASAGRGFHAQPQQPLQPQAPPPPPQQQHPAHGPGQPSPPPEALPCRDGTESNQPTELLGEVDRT

GCAGAACAATGGCGTTAGCTCGCCATTGTTCTG (structured_DNA) [SCS6]: binds.
